Paper doi:10.1101/2020.08.16.252742

Tests used:
[1] = target: HIV-1 JR-FL Env glycoprotein (unlabelled) on HIV-1 Gag-GFP pseudovirions (HIV-1 JR-FL); test: single-molecule photobleaching
[2] = target: HIV-1 NL4-3 Env glycoprotein (unlabelled) on HIV-1 Gag-GFP pseudovirions (HIV-1 NL4-3); test: single-molecule photobleaching

Substance	stoichiometry N [1]	stoichiometry N [2]
HIV-1 JR-FL Env glycoprotein (unlabelled) on HIV-1 Gag-GFP pseudovirions (complex)	> 2 Envs	
HIV-1 NL4-3 Env glycoprotein (unlabelled) on HIV-1 Gag-GFP pseudovirions (complex)		> 3 Envs
